Measured values from patent publication US20250262210A1 (TRUSTEES OF COLUMBIA UNIVERSITY IN THE CITY OF NEW YORK, published 2025).

Legend:
ABR = biological target: T1, ABR (human, UniProt Q12979 1-859, limits assumed); assay: IP/MS, LZTR1 R810W-FLAG, U87
T1 sequence (looked up): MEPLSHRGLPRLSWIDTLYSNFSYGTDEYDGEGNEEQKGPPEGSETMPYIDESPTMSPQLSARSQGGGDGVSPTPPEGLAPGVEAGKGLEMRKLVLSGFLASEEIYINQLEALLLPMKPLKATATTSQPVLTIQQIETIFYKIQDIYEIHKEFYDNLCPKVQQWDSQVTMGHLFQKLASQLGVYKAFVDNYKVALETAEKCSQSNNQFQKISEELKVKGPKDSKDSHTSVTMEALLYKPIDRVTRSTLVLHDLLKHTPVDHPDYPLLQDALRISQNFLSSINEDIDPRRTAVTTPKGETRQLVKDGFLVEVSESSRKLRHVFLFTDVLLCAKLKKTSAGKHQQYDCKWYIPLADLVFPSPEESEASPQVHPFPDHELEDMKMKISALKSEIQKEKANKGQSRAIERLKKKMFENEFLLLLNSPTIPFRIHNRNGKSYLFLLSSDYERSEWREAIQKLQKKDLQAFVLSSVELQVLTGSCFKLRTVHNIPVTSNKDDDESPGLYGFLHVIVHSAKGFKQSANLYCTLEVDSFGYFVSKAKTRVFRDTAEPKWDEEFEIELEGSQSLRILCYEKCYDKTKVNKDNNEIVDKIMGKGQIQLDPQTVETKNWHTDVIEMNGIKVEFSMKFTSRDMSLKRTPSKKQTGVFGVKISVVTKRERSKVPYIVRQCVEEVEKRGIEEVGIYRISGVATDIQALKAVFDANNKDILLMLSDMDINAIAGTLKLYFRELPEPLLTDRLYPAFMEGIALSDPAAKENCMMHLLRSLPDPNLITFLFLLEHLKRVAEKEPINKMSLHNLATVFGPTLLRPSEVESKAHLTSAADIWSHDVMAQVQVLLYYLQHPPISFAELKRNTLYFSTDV
In short: (§1)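 Gel slices were reduced with 5 mM DTT, alkylated with 11 mM IAA and digested overnight at 37° C. with trypsin. Peptides were analysed on an Orbitrap Fusion Tribrid by LC-MS/MS.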

LONP2 = biological target: T2, LONP2 (human, UniProt Q86WA8 2-852, limits assumed); assay: IP/MS, LZTR1 R810W-FLAG, U87
T2 sequence (looked up): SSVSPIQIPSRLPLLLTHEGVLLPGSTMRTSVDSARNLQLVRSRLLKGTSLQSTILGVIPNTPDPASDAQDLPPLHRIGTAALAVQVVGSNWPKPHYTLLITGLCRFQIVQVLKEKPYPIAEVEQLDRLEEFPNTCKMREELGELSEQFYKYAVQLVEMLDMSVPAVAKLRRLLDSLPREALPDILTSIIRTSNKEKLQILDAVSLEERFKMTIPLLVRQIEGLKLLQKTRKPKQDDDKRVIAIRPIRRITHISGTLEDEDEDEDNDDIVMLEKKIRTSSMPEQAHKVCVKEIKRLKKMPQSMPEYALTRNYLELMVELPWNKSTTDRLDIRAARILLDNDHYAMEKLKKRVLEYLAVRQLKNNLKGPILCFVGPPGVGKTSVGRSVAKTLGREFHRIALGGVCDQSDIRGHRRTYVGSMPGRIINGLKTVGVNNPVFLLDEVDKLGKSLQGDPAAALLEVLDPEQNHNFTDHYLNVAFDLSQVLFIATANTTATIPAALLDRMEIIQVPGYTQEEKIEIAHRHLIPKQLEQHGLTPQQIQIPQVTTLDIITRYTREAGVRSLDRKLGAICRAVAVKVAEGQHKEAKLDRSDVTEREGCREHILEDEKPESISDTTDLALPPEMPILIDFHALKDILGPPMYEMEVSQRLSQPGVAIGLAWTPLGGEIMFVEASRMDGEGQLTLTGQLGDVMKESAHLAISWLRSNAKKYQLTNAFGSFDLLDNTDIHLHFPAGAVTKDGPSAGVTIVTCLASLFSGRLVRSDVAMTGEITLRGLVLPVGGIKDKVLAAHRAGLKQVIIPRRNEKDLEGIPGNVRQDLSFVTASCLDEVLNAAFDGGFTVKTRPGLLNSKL
In short: as §1

B1: LZTR1 R810W-FLAG (other, human, UniProt Q8N653 1-840, looked up)
chain: MAGPGSTGGQIGAAALAGGARSKVAPSVDFDHSCSDSVEYLTLNFGPFETVHRWRRLPPCDEFVGARRSKHTVVAYKDAIYVFGGDNGKTMLNDLLRFDVKDCSWCRAFTTGTPPAPRYHHSAVVYGSSMFVFGGYTGDIYSNSNLKNKNDLFEYKFATGQWTEWKIEGRLPVARSAHGATVYSDKLWIFAGYDGNARLNDMWTIGLQDRELTCWEEVAQSGEIPPSCCNFPVAVCRDKMFVFSGQSGAKITNNLFQFEFKDKTWTRIPTEHLLRGSPPPPQRRYGHTMVAFDRHLYVFGGAADNTLPNELHCYDVDFQTWEVVQPSSDSEVGGAEVPERACASEEVPTLTYEERVGFKKSRDVFGLDFGTTSAKQPTQPASELPSGRLFHAAAVISDAMYIFGGTVDNNIRSGEMYRFQFSCYPKCTLHEDYGRLWESRQFCDVEFVLGEKEECVQGHVAIVTARSRWLRRKITQARERLAQKLEQEAAPVPREAPGVAAGGARPPLLHVAIREAEARPFEVLMQFLYTDKIKYPRKGHVEDVLLIMDVYKLALSFQLCRLEQLCRQYIEASVDLQNVLVVCESAARLQLSQLKEHCLNFVVKESHFNQVIMMKEFERLSSPLIVEIVRRKQQPPPRTPLDQPVDIGTSLIQDMKAYLEGAGAEFCDITLLLDGHPRPAHKAILAARSSYFEAMFRSFMPEDGQVNISIGEMVPSRQAFESMLRYIYYGEVNMPPEDSLYLFAAPYYYGFYNNRLQAYCKQNLEMNVTVQNVLQILEAADKTQALDMKRHCLHIIVHQFTKVSKLPTLWSLSQQLLLDIIDSLASHISDKQCAELGADI
notes: Stably expressed in U87 cells by lentivirus; also called LZTR1-FLAG-R810W; LZTR1 RW; not shown: FLAG tag
B1: binds (ABR); binds (LONP2).
